Assay results: article PMC4933879
Values joined by “and” are separate entries in the source; they are usually repeats but may differ in a detail not shown here. Identical values can stand only once.

Experiments:
[1] = target: acrylodan-labeled A-C2 (Q26C mutant); test: other fluorescence titration; fixed acrylodan-labeled DARPin (100 nM D1 or 15 nM high affinity DARPins) titrated with tubulin; 20 mM K-phosphate pH 7.2, 100 mM KCl, 1 mM MgCl2, 0.5 mM EGTA, 10 μM GDP, 20 °C; 1:1 quadratic fit
[2] = target: acrylodan-labeled D1 (Q26C mutant); test: as above
[3] = target: acrylodan-labeled TM-3 variant (Q26C mutant); test: as above
[4] = target: subtilisin-digested acrylodan-labeled TM-3 (C-cap-truncated TM-3); test: as above
[5] = target: DARPin D1; test: SPR; Proteon XPR36; DARPins immobilised through their N-terminal His-tag on Ni2+-activated tris-NTA (HTG) sensor chip, tubulin injected at five concentrations; 20 °C; buffer of the fluorescence experiments with 20 μM EGTA and 0.005% Tween 20; Langmuir fit; for D1 also KD from the plateau values
Chain of DARPin D1 (main, as listed by the source): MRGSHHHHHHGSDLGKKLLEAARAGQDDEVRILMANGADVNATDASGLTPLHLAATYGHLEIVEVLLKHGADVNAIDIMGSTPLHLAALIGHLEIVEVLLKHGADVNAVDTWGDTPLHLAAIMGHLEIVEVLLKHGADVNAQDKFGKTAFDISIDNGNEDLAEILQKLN

[6] = target: TM-3 1-149; test: as above
Chain of TM-3 1-149 (main, as listed by the source): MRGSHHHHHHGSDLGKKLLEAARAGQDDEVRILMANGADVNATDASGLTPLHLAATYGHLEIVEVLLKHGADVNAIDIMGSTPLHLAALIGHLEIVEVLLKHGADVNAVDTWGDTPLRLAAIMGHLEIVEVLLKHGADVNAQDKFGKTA

[7] = target: acrylodan-labeled A-C2 (Q26C mutant); test: fluorescence kinetics (stopped-flow and spectrofluorometer); koff: chase of acrylodan-labeled DARPin from tubulin by excess unlabeled DARPin (stopped-flow for D1, spectrofluorometer for high affinity DARPins), mono-exponential fit; kon: at least 5-fold excess of tubulin added to 50 nM labeled DARPin in a stopped-flow system, pseudo-first-order, slope of kobs against tubulin concentration
[8] = target: acrylodan-labeled D1 (Q26C mutant); test: as above
[9] = target: acrylodan-labeled TM-3 variant (Q26C mutant); test: as above
[10] = target: subtilisin-digested acrylodan-labeled TM-3 (C-cap-truncated TM-3); test: as above

Kd [1]: 0.82 nM
Kd [2]: 127 nM
Kd [3]: 0.9 nM
Kd [4]: 1.03 nM
Kd [5]: 300 nM and 275 nM
koff [5]: 0.22 s⁻¹
kon [5]: 800000 M⁻¹ s⁻¹
Kd [6]: 1.6 nM
koff [6]: 0.0027 s⁻¹
kon [6]: 1.7e+06 M⁻¹ s⁻¹
Kd [7]: 0.444 nM
koff [7]: 0.0071 s⁻¹
kon [7]: 1.6e+07 M⁻¹ s⁻¹
Kd [8]: 115 nM
koff [8]: 1.49 s⁻¹
kon [8]: 1.3e+07 M⁻¹ s⁻¹
Kd [9]: 0.269 nM
koff [9]: 0.0049 s⁻¹
kon [9]: 1.82e+07 M⁻¹ s⁻¹
Kd [10]: 0.172 nM
koff [10]: 0.0046 s⁻¹
kon [10]: 2.67e+07 M⁻¹ s⁻¹
Substance: αβ tubulin heterodimer (tubulin) (complex)
